The target of this experiment is T1, IRAK4 (Homo sapiens, UniProt Q9NWZ3).
T1 sequence (Q9NWZ3 1-460): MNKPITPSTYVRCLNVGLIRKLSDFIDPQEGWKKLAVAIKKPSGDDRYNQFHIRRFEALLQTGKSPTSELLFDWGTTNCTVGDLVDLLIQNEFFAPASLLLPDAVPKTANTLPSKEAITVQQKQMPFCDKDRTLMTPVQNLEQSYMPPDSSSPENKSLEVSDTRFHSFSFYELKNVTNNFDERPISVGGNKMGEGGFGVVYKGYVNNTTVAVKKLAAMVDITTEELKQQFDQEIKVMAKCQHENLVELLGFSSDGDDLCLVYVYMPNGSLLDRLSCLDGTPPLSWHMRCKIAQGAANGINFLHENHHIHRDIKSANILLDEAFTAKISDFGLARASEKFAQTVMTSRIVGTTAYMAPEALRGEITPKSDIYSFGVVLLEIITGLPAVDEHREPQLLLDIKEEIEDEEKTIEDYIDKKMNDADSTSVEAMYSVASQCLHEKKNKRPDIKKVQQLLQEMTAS
The experiment in a line: mRNA display affinity selection against IRAK4, NGS abundance. Format: binding. More on the design: acids 1-460; NP_057207.2) was purchased from Carna Biosciences; purchased Carna Biosciences (Kobe, Japan). As to conditions: Top100 selection hits, NGS.

On to SRLWRRRIFQ, for which, for the setting “IRAK4 selection pulldown (+)”, the Library fraction is reported as 0.0001 and the Raw reads was found to be 10. For the setting “IRAK4 selection pulldown (-)”, this sequence had a Library fraction of 9e-5 and a Raw reads of 12.

For the setting “IRAK4 selection pulldown (+)”, SRLWRRRIYH came in with a Library fraction of 0.009 and a Raw reads of 985. Besides, under “IRAK4 selection pulldown (-)”, the Library fraction turned out to be 0.014 and the Raw reads is recorded as 1900.

Turning to STLWNKKIYK, the Library fraction was found to be 0.0005 (IRAK4 selection pulldown (+)) and 0.00019 (IRAK4 selection pulldown (-)). Further, the Raw reads came to 54 (IRAK4 selection pulldown (+)) and 26 (IRAK4 selection pulldown (-)).

As to STRWKNRIYR, for the setting “IRAK4 selection pulldown (+)”, the Library fraction amounted to 0.004 and the Raw reads turned out to be 433. For the setting “IRAK4 selection pulldown (-)”, this sequence showed a Library fraction of 0.003 and a Raw reads of 390.

Turning to STRWKRRNYT, for the setting “IRAK4 selection pulldown (+)”, the Library fraction is listed as 0.0004 and the Raw reads amounted to 39. For the setting “IRAK4 selection pulldown (-)”, this sequence yielded a Library fraction of 0.00016 and a Raw reads of 22.

In the case of STRWNNRIWR, under “IRAK4 selection pulldown (+)”, the Library fraction was determined as 0.0001 and the Raw reads was determined as 9.

As for STYRKRRIWY, under “IRAK4 selection pulldown (+)”, the Library fraction was found to be 0.0001 and the Raw reads is recorded as 14.

Consider STYWKSRIYT, for which, for the setting “IRAK4 selection pulldown (+)”, the Library fraction was found to be 0.0002 and the Raw reads was 23.

SVCWKRRNCH: for the setting “IRAK4 selection pulldown (+)”, the Library fraction was determined as 0.0002 and the Raw reads came out at 24. Where the note is “IRAK4 selection pulldown (-)”, this sequence registered a Library fraction of 0.00016 and a Raw reads of 22.

In turn, SVFWNRRIYK registered a Library fraction (IRAK4 selection pulldown (+)) of 0.0006 and a Library fraction (IRAK4 selection pulldown (-)) of 0.00016. In addition, the Raw reads reads like this: (IRAK4 selection pulldown (+)) 68; (IRAK4 selection pulldown (-)) 21.

Under “IRAK4 selection pulldown (+)”, SVLWKKRVWQ gave a Library fraction of 0.003 and a Raw reads of 318. For the setting “IRAK4 selection pulldown (-)”, this sequence had a Library fraction of 0.00139 and a Raw reads of 186.

On to SVLWKRKIHN, for which the Library fraction is 0.0012 (IRAK4 selection pulldown (+)) and 0.001 (IRAK4 selection pulldown (-)). Besides, the Raw reads reads like this: (IRAK4 selection pulldown (+)) 125; (IRAK4 selection pulldown (-)) 137.

Under “IRAK4 selection pulldown (+)”, SVLWKRRIAK returned a Library fraction of 0.010 and a Raw reads of 1112. For the setting “IRAK4 selection pulldown (-)”, this sequence displayed a Library fraction of 0.011 and a Raw reads of 1441.

For SVLWKRRIWK, the Library fraction reads like this: (IRAK4 selection pulldown (+)) 0.033; (IRAK4 selection pulldown (-)) 0.020. For the same sequence, the Raw reads (IRAK4 selection pulldown (+)) is recorded as 3569 and the Raw reads (IRAK4 selection pulldown (-)) was 2704.

Where the note is “IRAK4 selection pulldown (+)”, SVLWRKRIYR displayed a Library fraction of 0.0037 and a Raw reads of 391. For the setting “IRAK4 selection pulldown (-)”, the Library fraction was found to be 0.00143 and the Raw reads was determined as 191.

Where the note is “IRAK4 selection pulldown (+)”, SVRWKHRIYK came in with a Library fraction of 0.0003 and a Raw reads of 29. Besides, under “IRAK4 selection pulldown (-)”, the Library fraction is reported as 0.00012 and the Raw reads came to 16.

Regarding SVRWKRRDYR, where the note is “IRAK4 selection pulldown (+)”, the Library fraction was determined as 0.0046 and the Raw reads amounted to 492. For the same sequence, where the note is “IRAK4 selection pulldown (-)”, the Library fraction is listed as 0.007 and the Raw reads turned out to be 903.

Take TADGLILTPWVT: the Library fraction (IRAK4 selection pulldown (+)) amounted to 0.0001 and the Library fraction (IRAK4 selection pulldown (-)) was found to be 0.00281. Further, the Raw reads is, setting by setting: (IRAK4 selection pulldown (+)) 15; (IRAK4 selection pulldown (-)) 375.

For the setting “IRAK4 selection pulldown (+)”, TCLWKRRIYS yielded a Library fraction of 0.0001 and a Raw reads of 10.

Consider TLCWKRRTWK, for which the Library fraction is on record as 0.026 (IRAK4 selection pulldown (+)) and 0.018 (IRAK4 selection pulldown (-)). The Raw reads came to 2745 (IRAK4 selection pulldown (+)) and 2408 (IRAK4 selection pulldown (-)).

For the setting “IRAK4 selection pulldown (+)”, TLCWRRRNYK came in with a Library fraction of 0.024 and a Raw reads of 2567. For the setting “IRAK4 selection pulldown (-)”, this sequence had a Library fraction of 0.011 and a Raw reads of 1518.

On to TLLWKRRIYK, for which, under “IRAK4 selection pulldown (+)”, the Library fraction is 0.0019 and the Raw reads stood at 207. For the setting “IRAK4 selection pulldown (-)”, this sequence showed a Library fraction of 0.00132 and a Raw reads of 176.

For the origin of these results see publication PMC10683472, “Deep Learning-Driven Library Design for the De Novo Discovery of Bioactive Thiopeptides” (ACS Central Science, 2023).
